{"source": "paper PMC6444176", "about": "(Biochemistry and Biophysics Reports, 2019)", "proteins": {"B1": {"name": "His-MBP-VWA (hCLCA1 von Willebrand factor type A domain construct, amino acids 240-544) (domain or fragment, human, UniProt A8K7I4 240-544, looked up)", "chain": "AQHVDSIVEFCTEQNHNKEAPNKQNQKCNLRSTWEVIRDSEDFKKTTPMTTQPPNPTFSLLQIGQRIVCLVLDKSGSMATGNRLNRLNQAGQLFLLQTVELGSWVGMVTFDSAAHVQNELIQINSGSDRDTLAKRLPAAASGGTSICSGLRSAFTVIRKKYPTDGSEIVLLTDGEDNTISGCFNEVKQSGAIIHTVALGPSAAQELEELSKMTGGLQTYASDQVQNNGLIDAFGALSSGNGAVSQRSIQLESKGLTLQNSQWMNGTVIVDSTVGKDTLFLITWTMQPPQILLWDPSGQKQGGFVV"}}, "target": "the molecule itself", "assay": "SEC"}
{"protein": "B1", "values": [{"measurement": "stoichiometry N", "value": 2}]}
